This note sets out measurements from the DeepSol protein solubility set.

The nature of the data set: soluble on expression in E. coli; label from the status in PepcDB or PDB records.
For the sequence “MQTFNRERLEFALDKRGCTQTKLAELLGITARQVRNYVKDEQIPDLNELANLLEFPVHFFTNDERLPELKSQAVSFRARSRTSKRLEKQALNHSITAFLLNDWLETEFTLSQAVLPDFSDISPEEAAQELRLEWGLGNEPIPNMITLLEVKGVRVFSLSLDTKDIDAFCTWYENHPFVFLNTQKSAERSRFDAAHELGHLIRDKYSMEHSKNSEITEDEPRDIIEKEANAFASAFLMPEAALRLYRHVPITIENLLKIKRRFGVSLVALAYRMHKLGMITDRMYIHNLCPLFAKKKYRTIEPEPMEREISSALRKMLTILKNDGIGIEQIAENLNVSPKDVADLTFGLVERDLNRYRKLRLVK”, the “soluble on expression in E. coli” value is “not soluble”. In the case of “MTLKLTYFDIRGLAEPIRLLLNDQEIPFEDNRISREEWAEMKSTMIFAQLPCLHIGTETIVQSAAILRHLGRIYGLNGSTESETSFIDMFSEGLRDLRTKYFTMIKTDYEDGKEAYITETLPGELLRIEKLFCTFNNGENFVSGDKLSYADYALFELLDIHLILTPTALNGTPALKRFHGRFAERPNMRLYLNKRAELNPFVSGNGKQ” it was “not soluble”.

For “MGSDKIHHHHHHMRKKLISILVDGVSADTFEKHAHRLPNMRHLAERGLRVRRLKSAVPATSVPGRATMLTGVGPETHGIYGNHIFRGDASVAPLAEDLLVPTIATHARQAGLDVAAIGQALVNPRDTSVYVSPWWLRGFMTGYRFSKMVTPEALAASRAIHDPEDRLAKAGLTEMDAFRDAADGGAPHLISGLALDQFLNRAVVALLGSDRPPDLLLTEIEMPDAFQHYLGYDSPAGIWSVEFADMLIGNLLAVLERTGRREDYVIAVASDHGHGFVDTAIFPEAIIPDMHWMTEGASLYVSLKAAGDLERVTERLLPYGVELWNDHHVPENLRGTVAMFVAPPRHSFEERPSDASGPLVATGSPHLISTHGFRPGSPEDDRMFILSGGGIAPKVIKAADADQFAPTLASVLGLPLEPYAGRSLIAEESPIARSPQSLELHLK”, the “soluble on expression in E. coli” value was “not soluble”. The value for “MELSSEHKALFSLLRAGLWEREPDDLSPFPLTDAQWWNVYRMAVRQTVTGIVCRGLHHLPEALLPGDALMIRWVAETDRIERKNRRMDAVVCLLAQRMGRNGLHPVLLKGQGVAAFYEHPLTRECGDIDLCFLSEEEEREAAELMRRVGCRTEKQPDGSNCYSWQGVEVEHHTRLFDLHNPLLKVYLSALVREHGFTEFRPGGRDGLPEGNQSGEFPATISVPSPLPNLLLLNAHLLKHLLGHGVGLRQFCDMARAYHTLCGSYSPEGLEAVYRRTGLLRWSAQLHTFLTEYLGLHRAELPYADTDACSSPELLRIVLEGGNFGQYGGTKGKASQARWERKLRTFLSFWKHRGFSSAYARKEAFWISVRLIIGNLR” was “not soluble”. In the case of “MEIFLSDPISAECPCGPDLEYDPEYLLLFTRAAPREEAQYGDFVSTPENINWAELERDAHRLLMRSKDIRILVVLLRCRIQQAGARGLSEALTLLETLCSTYPDAIHPQLLATEDITAEDAAVARSNALAALLDHEGVMADIRGITLSNNAAMRLQVRDVERSLSALRPADALAPESVRQQLADLEARGTLPLDAFRQAAETTERLQRHARETLNDQAPDFSRLTQLLALLPGAVQSTTPEILPQPQAEQPENATIVHTEQMQAEQIALPVHIAEEISPMTGAEPRQIRDRNDALERLRVIRRWFEHSEPSSPTIPLLRQAERLVGKRVSEVINEIPVELLEKWDALE” it was “not soluble”; in that of “MSLIEPDHPQLSIGQQCKLLSISRSSFYYTPKGETDQNLSLMRQIDEQFLETPFFGVRQMTWHLRNEHHLVNEKRIRRLMRLMGLMPIYQKPNNTSRPGRGHKTYPYLLRGLRVDRPNQVWCSDITYLPMRRGFLYLVAIMDWHTRKVLAWRISNTLEADFCVEALNEAIHKFGPPEIMNTDQGSQFTSFAWTDRLRRSGVRISMDGKGRFLDNIFIERLWRTLKYECVYLHAWETGSEAKAGIRKWMTFYNSASLRPSFYVVEGNRFCEGHHHHHH”, “not soluble”; in that of “MALPKLTDEQRKEALAKAAEARKARAELKEQLKRSDITLKEVLDKASSDEIIGKTKVSALLESLPKVGKVKAKEIMEELEIAQTRRLRGLGDRQRRALLERFGYSED”, “not soluble”. For the sequence “MGSDKIHHHHHHMIEVEIDKDSGFCFGVVTAIESAERELGNTDTLYCLGDIVHNSLEVERLEHMGLHTIDHEGLSRLRDRKVLLRAHGEPPSTYALAKRNNITIIDATCPVVLRLQRKIHKCYQETRANNTQLVIYGKKGHAEVNGLVGQTEGTAIVIEKIEDLDRLDFTRAISLFSQTTKSLDGFKAVVAEIKQRMAEGVEFNYYDTICRQVANRLPNIKAFASSHDWVYFVAGRKSSNGKMLFEECRKANPNTLFISEVSEITEPLPEGVRRVGVCGATSTPKWLMEEVAVRIKELNASE”, the “soluble on expression in E. coli” value is “not soluble”. The value for “MENSIEAYLADSREKVTLGTVVDCFKGKAVSSKVVPGDVGLINLSDMGTLGIQYHQLRTFQMDRRQLLRYLLEDGDVLIASKGTLKKVCVFHKQNRDVVASSNITVLRPQKLLRGYYIKFFLDSPIGQALLDVADHGKDVINLSTKELLDIPIPVIPLVKQDYLINHYLRGLTDYHRKLNRAEQEWEYIQNEIQKGLG” was “soluble”. In the case of “MNMLEKIQSQLEHLSKSERKVAEVILASPDNAIHSSIAALALEANVSEPTVNRFCRSMDTRGFPDFKLHLAQSLANGTPYVNRNVNEDDSVESYTGKIFESAMATLDHVRHSLDKSAINRAVDLLTQAKKIAFFGLGSSAAVAHDAMNKFFRFNVPVVYSDDIVLQRMSCMNCSDGDVVVLISHTGRTKNLVELAQLARENDAMVIALTSAGTPLAREATLAITLDVPEDTDIYMPMVSRLAQLTVIDVLATGFTLRRGAKFRDNLKRVKEALKESRFDKQLLNLSDDR” it was “soluble”. The value for “MSLQEDPVVMRINGKDIPRSEFEYSYRRHADGNGMKLSPKEYAEFFIQSKLKVEAARAAGLDTTSAFRKQQEAYRTNLLRSYLLDDQEMDGNARILYQKMKENVRGGQVQIQQIYKYLPQTITSRHLQEEQARMDSIYQVIQNQPGVDFARLVDRFSDDKRCRWIESLQTTSEFEEAAFSLAKGEISKPFFTPEGIHILKVIDRKEVPAYEVVSDSLLNRLRRQPLDKGTEAIVEQLKKEYQYIPNMESLEEVLQKGGTERTLFTIDGQAYTGEMFKRFAASHPQAVKRQLNGFIAKSLLDYESQHMERKHPELRYTLQEYAEKCLAEEIVHQKVDLPAVNDRVGLATYFKFHSSDYRWEHPRYKGVVLHCADKKTAKQAKKLLKKVPENEWEDMLRKTFNTSGAEIIKIEQGVFADGDNKYIDKLVFKKGAFDPVVSYPFTIAVGKKQKGPEDYREVIDQVRKDYRNYLNAYWERELRESGKVEINQEVLKTVNNEGHHHHHH” was “soluble”; that for “MANIEIRQESPSAFYIKVHETDNVAIIVNDHGLKAGTRFPDGLELTEHIPQGHKVALTDIPAHGEIIRYGEVIGYAVRDIPRGSWIDESLVELPKAPPLNTLPLATKVPEPLPPLEGYTFEGYRNADGSVGTKNLLGITTSVHCVAGVVDYVVKVIERDLLPKYPNVDGVVGLNHLYGCGVAINAPAAVVPIRTIHNIALNPNFGGEVMVIGLGCEKLQPERLLEGTEDVPAIAVESASIVRLQDEQHVGFKSMVDDILRVAERHLTKLNQRQRETCPASELVVGMQCGGSDAFSGVTANPAVGYASDLLVRCGATVMFSEVTEVRDAIHLLTPRAINEAVGKRLLDEMAWYDNYLDMGKTDRSANPSPGNKKGGLANVVEKALGSIAKSGKSAIVEVLSPGQRPTKRGLIYAATPASDFVCGTQQVASGITVQVFTTGRGTPYGLMAVPVIKMATRTELANRWYDLMDINAGTIATGEETIEDVGWKLFHFILDVASGRKKTFSDQWGLHNQLAVFNPAPVT” was “not soluble”. Turning to “MAHHHHHHMSSCKDSLSLMAMWGSIARFDPKHERSFEGPEKRLEVIMRVVDGTHVSGLLAHDDDVWQKVIDAICAHIVSREFNEYIRSYVLSESSLFVMKDRVILITCGTITLLNCVPLICEAVSTVCGEVEWVSFMHKNYSFPWEQKGPHLSMAEEFKTLRSHFPSGQPFIFGPIDSDHYFLYFHSDVVQPSCSDDAQLSMTMYGLDRNQTKHWYSDKMLPTGPETAVIREATGLSEVVDDSWILHDLQYEPCGYSINAIRGSEYQTIHITPEEHCSFASYETNTCALNYSKCICGVLRVFDPERFSVIVFIDPDSAVGKSYHSGGTIGVEPEYYPNYEAHHRTVNEYTPGHWVLKVNYVKRAVGTVGTSAASGAKE”, the “soluble on expression in E. coli” value was “not soluble”. Turning to “MKPKLAQWKELLAARHKKENDEEKEEEKPDGRPVTDVPYADVWREYGAKPYWFAGDYCLIRETVYPLDYQHGRYRLGALYEVHERWQEAPFSHPLSCRGFAVRDLFFFDTETMGLSSGAGNIMFLLGHARILGDFVTIRQHLLPYPGAEVALYQSFLSDVDYTTLVTYNGKAFDWPRLKTRHALVRNMVPKLPAFGHFDLYHAARRLWKDKLDSLRLSEVERHILHVERGDDVPGFLAPMMYKEFLQTPHPDRLMPVLRHNERDVLSLIALYIHLSVQLLEADRLADPKEQLAAARWFEAVGETAAARGVYEEASGKGAKEAQAAKWQLSLLYRKEKRYEEAALLWRDLLIHGNGYWKAKAGLELAKVYEHYFRDAAEAHRYAVMAYEAWRSLARMSRQHSEKEEAEWRRRLARLERKKNG”, the “soluble on expression in E. coli” value was “not soluble”. The value for “MSSAAQAYARTAQRTASPREIEAQALLKAAKQLQDVVTNWEEKGAIGLQEALLFNRKLWSIFVTEAMRDDNPQSIEIRQNIANIGVFVMSQSSALQIKPEVERLQALIDINRNIAAGLSGRP” was “not soluble”; that for “SDQEEGLKALDNIVTQFNAYEDFLDSQITTVDLYYLEDETLARQLVELGYRGTGERVKREDFEARKAAIEIARLAERAQQKTLTSAGKDLQDNFLTALAMREEDNRSGKLSSVIFIRDRNSHGQEISGYIDYAHRLKTEDFEVYFTGKKRLLPRPTDISFYNWDADIAVSNSSPNYQVIADNPEGLLFRYKRDRKILNVDPKAQPGDNSTRITILTELYIQAVIFDHISRRKT” was “soluble”. The value for “MNRMEYNPIKKVVSGNYAAAYAALHARVQVVAAYPITPQTSIIEKIAEFIANGEADIQYIPVESEHSAMAACIGASATGARVFTATSAQGLALMHEMLHWAAGSRLPIVMVNVNRAMAPPWSVWDDQTDSLSQRDTGWMQFYAENNQEVYDGVLMAYKVAETVNIPTMIIESAFILSHTYEVVNMIPQELVDEFLPPRKPLYTLTDFENPIAVGALATPADYYEFRYKIAKAHEEAKKVIKSVGKEFGERFGRDYSKMIETGYIEDADFVFMGMGSLMGTVKEAVDLLRKEGYKVGYAKVRWFRPFPKEELLEIAESVKGIAVLDRNFSFGQEGILFTEAKGALYNTGVRPIMKDYIVGLGGRDFTVRDVKAIAEDMKKVVESGKLDKEIEWYHLKR” was “soluble”; that for “MCSVKPKYISLPEQNSLCSLPNSGCCQVEVKIGRSKWEQQKAILVKVDGEPAGKIFIYSQPLIGQMYPLHELKSMGVICEKAGDFLVNLVTERGLKLTFKPIGSTANCFVTALVSGNFTSLTHETHIKTPLQNQEATTSPTIESDLTDKPDTNVYTGSREGYVAPSEKGSNEKKKEVVPNGGDKSVENKKGSDRNVKKTPSKTVTKPLLSESRKRKEAKTLATTQSQDLPAPTKDEPERTNSEPDNGEQEKIKKEKKKGTETSLKDGKNKLNEKIVKPAPTTTPDAGNGGLTPGKEDNKKTVTTSSVEIEVPEKKKAVENAGIIKIS” was “not soluble”. In the case of “MLSALRTAGAVGTRRLASTQAIASNSEAPKGIATTGTPFLNPSSKAEYALARLDDVLNLAQRGSIWPLTFGLACCAVEMMHFAAPRYDMDRYGVVFRASPRQADLIFVAGTVTNKMAPALRRIYDQMPEAKWVISMGSCANGGGYYHYAYSVLRGCDRVIPVDIYVPGCPPTAEALLYGVLQLQKKIKRKREAQLWYRR” it was “not soluble”.
